Biological target: GST.119-224 (glutathione S-transferase fusion protein of the SH2 domain, residues 119-224, of p56^lck) (not provided)
Experiment: competition of peptide with p62 in the GST.119-224 pull-down from HeLa lysate

| Substance | concentration that competed away p62 binding [mM] |
| --- | --- |
| pY505 phosphotyrosyl peptide (derived from the C-terminal negative regulatory region of p56^lck) | 15 |
| pY324 phosphotyrosyl peptide (derived from polyoma middle T antigen) | 1 |
